In US20210332123A1 (SUZHOU KANOVA BIOPHARMACEUTICAL, published 2021):

How the values were obtained:
[1] = target: T1, human IL-25 (human, UniProt Q9H293 33-177); experiment: ELISA, plate coated with human IL-25 (hIl25-HIS), OD450, Example 4; unit from the axis lg(nM) and paragraph 95
T1 construct: ELISA used bought R&D systems #1258-IL-025/CF; Treated as one molecule; also called IL-17E; human IL-17E
T1 sequence (looked up): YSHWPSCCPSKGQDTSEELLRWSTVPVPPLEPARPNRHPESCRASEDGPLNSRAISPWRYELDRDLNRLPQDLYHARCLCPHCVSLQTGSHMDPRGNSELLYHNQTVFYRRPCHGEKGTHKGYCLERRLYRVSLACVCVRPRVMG
Method: MaxiSorp 96-well plates (NUNC #449824, www.thermofisher.com) were coated with 2 μg/ml human IL-25 (R&D systems #1258-IL-025/CF) in 1×PBS (50 μl/well). Plates were incubated at 4° C. overnight. Coating solution was removed and plates were washed once with 200 μl/well PBST (1×PBS with 0.05% tween-20). Then 200 μl/well blocking buffer (1×PBS with 0.05% tween-20, 3% BSA) were added and incubated at room temperature for 1 hour. Blocking buffer was removed and plates were washed three times with 200 μl/well PBST (1×PBS with 0.05% tween-20). Anti-IL-25 antibodies (produced in Example 2) were diluted to 10, 3.33, 1.11, 0.37, 0.123, 0.041, 0.0137, 0.0046, 0.0015, 0.00031, 0.000102, 0.000034 μg/ml by 1×PBS and added to plates (50 μl/well). Plates were incubated at room temperature for 2 hours. Antibodies in the wells were removed and plates were washed three times with 200 μl/well PBST (1×PBS with 0.05% tween-20). Goat anti-human IgG (H&L)-HRP secondary antibody (Jackson Immuno Research #109-035-088, www.jacksonimmuno.com) was diluted 1:5000 in 1×PBS and added to each well (50 μl/well). Plates were incubated at room temperature for 1 hour. Secondary antibody was removed and plates were washed seven times with 200 μl/well PBST (1×PBS with 0.05% tween-20) each time. 50 μl/well TMB (eBioscience #85-00-4201-56, www.ebioscience.com) was added and plates were incubated at room temperature for several minutes. Then 50 μl/well 2N H₂SO₄ was added to stop the reaction. Optical density was measured at 450 nm in relation to human IL-25 binding.

[2] = target: T2, mouse IL-25 (mouse, UniProt Q8VHH8 17-169, limits assumed); experiment: ELISA, plate coated with mouse IL-25, OD450, Example 7; unit from the axis lg(nM) [panel Mouse IL-25]
T2 construct: In-house production
T2 sequence (looked up): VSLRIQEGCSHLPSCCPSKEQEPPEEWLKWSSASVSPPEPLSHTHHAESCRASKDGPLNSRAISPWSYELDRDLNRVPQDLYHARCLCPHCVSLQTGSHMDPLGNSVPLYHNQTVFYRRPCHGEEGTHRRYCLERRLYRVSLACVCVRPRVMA

[3] = target: T1, human IL-25; experiment: cell-based or functional assay

EC50 [1]: 0.208 nM
EC50 [2]: 0.215 nM
IC50, CXCL1/GROalpha production of HT-29 cells stimulated by human IL-25 [B] [3]: 11.4 nM
B1: VH1-2-VL2-1 (antibody, V domains shown)
VH: QVTLKESGPTLLKPTQTLTLTCTFSGFSLSTSGMGLGWIRQPPGKALEWLAHIWWDDVKHYKPALKSRLTITKDTSKNQVVLTITNVDPVDTATYYCARMGQLHYYGYDYAMDYWGQGTLVTVSS
VL: DIQLTQSPSFLSASVGDRVTITCSASSSVSYMYWYQQKPGKAPKPLIYRTSNLASGVPSRFSGSGSGTEYTLTISSMQPEDFATYYCQLYHSYPPTWTFGQGTKLEIK
notes: also called antibody formed by VH1-2 and VL2-1; copies: 2 + 2
